Laboratory results as given in patent US20180214514A1 (GEORGETOWN UNIVERSITY, published 2018).

B1: human recombinant FGFR1 Fc chimera (Fc fusion, UniProt P11362 22-376, looked up)
chain: RPSPTLPEQAQPWGAPVEVESFLVHPGDLLQLRCRLRDDVQSINWLRDGVQLAESNRTRITGEEVEVQDSVPADSGLYACVTSSPSGSDTTYFSVNVSDALPSSEDDDDDDDSSSEEKETDNTKPNRMPVAPYWTSPEKMEKKLHAVPAAKTVKFKCPSSGTPNPTLRWLKNGKEFKPDHRIGGYKVRYATWSIIMDSVVPSDKGNYTCIVENEYGSINHTYQLDVVERSPHRPILQAGLPANKTVALGSNVEFMCKVYSDPQPHIQWLKHIEVNGSKIGPDNLPYVQILKTAGVNTTDKEMEVLHLRNVSFEDAGEYTCLAGNSIGLSHHSAWLTVLEALEERPAVMTSPLYLE
notes: It was immobilized on a CM-5 SPR chip; not shown: Fc part of the chimera
B2: MBP-tagged C66 fusion protein (C-terminal 66-amino acid FGF-binding domain of human BP3) (other, not shown: large carriers)
chain: APPKENPSERKTNEGKRKAALVPNEERPMGTGPDPDGLDGNAELTETYCAEKWHSLCNFFVNFWNG
notes: MBP fusion with an apparent molecular mass of 52 kDa; also called C66 fragment; C-terminal hBP3 region

How the values were obtained:
[1] = biological target: T1, MBP-tagged recombinant human FGFBP3 (MBP-BP3) (human, UniProt P0AEX9 27-392 = MBP, limits assumed); test: SPR, BP3 over immobilized FGFR1 Fc chimera (FIG. 6B)
T1 construct: Bacterially expressed MBP fusion; The order MBP then BP3 follows the pMAL-p2X vector design; also called hBP3
Procedure: (§1) Biacore T200 instrument (GE Healthcare) was used for surface plasmon resonance measurements. Human recombinant FGFR4 or FGFR1 Fc chimera in HBS-P buffer (0.01 M HEPES pH 7.4, 0.15 M NaCl, 0.05% P-20) were immobilized on a flow cell of a CM-5 sensor chip (GE Healthcare, Piscataway, N.J.) via amine coupling. A blank flow cell was used as a negative control for non-specific binding to the sensor surface. […] Dissociation constants were calculated from the association and dissociation rates of the proteins after washing. The experiments were performed in triplicate.

[2] = biological target: B1; test: SPR, equilibrium binding to immobilized FGFR1 Fc chimera (FIG. 7C)
Procedure: as §1

human recombinant FGF19 = biological target: T2, human recombinant FGF19 (human, UniProt O95750 25-216); test: SPR, C66 over immobilized FGF19 (FIG. 7B)
T2 construct: Bought recombinant protein; also called fibroblast growth factor 19
T2 sequence (O95750 25-216 limits assumed): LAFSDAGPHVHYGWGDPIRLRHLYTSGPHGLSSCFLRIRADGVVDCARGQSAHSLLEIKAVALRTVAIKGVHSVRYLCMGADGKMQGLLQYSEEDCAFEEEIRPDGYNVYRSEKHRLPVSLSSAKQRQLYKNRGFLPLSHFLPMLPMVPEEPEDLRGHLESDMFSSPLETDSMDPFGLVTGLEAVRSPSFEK

[3] = biological target: T3, human recombinant FGFR4 Fc Chimera (human, UniProt P22455 22-369); test: SPR, C66 over immobilized FGFR4 (FIG. 7B)
T3 construct: Bought reagent; It was immobilized on ELISA plates and on a CM-5 SPR chip; also called FGF Receptor 4; fibroblast growth factor receptor 4; Fc part of the bought chimera not given
Procedure: as §1

Row | Binder | binding result [1] | binding result [2] | binding result (human recombinant FGF19) | binding result [3]
1 | B1 | no binding (tested: 4, 2, or 1 nM) |  |  | 
2 | B2 |  | no binding (tested: 245 nM) | binds | no binding (tested: 245 nM)
